Measured values as given in patent US20120231006A1 (Amgen, published 2012).

Tests used:
[1] = target: T1, hOrai1-mOrai1 ECL2 (…) protein (human/mouse chimera, UniProt Q96D31 1-301); experiment: FACS, 293EBNA, RFI-POC grade; set-up: concentration or dose not given beside the values
T1 construct: also called Ch
T1 sequence (Q96D31 other isoform, or with tags, fused parts or gaps): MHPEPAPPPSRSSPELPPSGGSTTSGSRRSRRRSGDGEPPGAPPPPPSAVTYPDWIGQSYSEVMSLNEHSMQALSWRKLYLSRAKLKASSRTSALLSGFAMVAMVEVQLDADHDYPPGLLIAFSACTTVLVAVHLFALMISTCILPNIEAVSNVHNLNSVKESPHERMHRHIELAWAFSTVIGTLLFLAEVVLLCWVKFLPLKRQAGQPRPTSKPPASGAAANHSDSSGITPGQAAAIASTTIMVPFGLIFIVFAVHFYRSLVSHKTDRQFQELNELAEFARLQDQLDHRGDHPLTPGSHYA

[2] = target: T2, hOrai1-mOrai1 ECL2 (…) protein (human/mouse chimera, UniProt Q96D31 1-301); experiment: FACS, 293EBNA, RFI-POC grade; set-up: concentration or dose not given beside the values; remark: listed apart in the source
T2 construct: also called Ch
T2 sequence (Q96D31 other isoform, or with tags, fused parts or gaps): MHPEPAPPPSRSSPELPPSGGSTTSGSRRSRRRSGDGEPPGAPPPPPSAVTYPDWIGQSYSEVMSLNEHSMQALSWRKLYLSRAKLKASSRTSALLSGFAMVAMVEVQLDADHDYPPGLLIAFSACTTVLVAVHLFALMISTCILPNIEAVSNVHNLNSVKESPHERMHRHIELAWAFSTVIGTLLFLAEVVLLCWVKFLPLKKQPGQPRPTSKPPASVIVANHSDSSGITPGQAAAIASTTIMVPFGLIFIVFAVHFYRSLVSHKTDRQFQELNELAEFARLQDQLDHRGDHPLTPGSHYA

[3] = target: T3, mOrai1-hOrai1 ECL2 chimeric protein (human/mouse chimera, UniProt Q8BWG9 1-304 (mouse entry)); experiment: FACS, 293EBNA, RFI-POC grade; set-up: concentration or dose not given beside the values
T3 construct: mouse Orai1 with human ECL2; also called Ch
T3 sequence (Q8BWG9 other isoform, or with tags, fused parts or gaps mutant): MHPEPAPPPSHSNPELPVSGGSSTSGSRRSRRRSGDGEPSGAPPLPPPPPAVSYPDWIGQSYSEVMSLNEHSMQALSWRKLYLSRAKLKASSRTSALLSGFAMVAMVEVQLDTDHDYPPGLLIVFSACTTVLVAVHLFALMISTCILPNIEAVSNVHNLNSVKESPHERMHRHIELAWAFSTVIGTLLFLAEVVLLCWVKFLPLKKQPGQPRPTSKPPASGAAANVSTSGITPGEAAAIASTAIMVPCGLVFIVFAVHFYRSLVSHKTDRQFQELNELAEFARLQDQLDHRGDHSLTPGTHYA

[4] = target: T4, hOrai1-mOrai1 ECL2 (…) protein (human/mouse chimera, UniProt Q96D31 1-301); experiment: FACS, 293EBNA, RFI-POC grade; set-up: concentration or dose not given beside the values; remark: listed apart in the source
T4 construct: also called Ch
T4 sequence (Q96D31 other isoform, or with tags, fused parts or gaps): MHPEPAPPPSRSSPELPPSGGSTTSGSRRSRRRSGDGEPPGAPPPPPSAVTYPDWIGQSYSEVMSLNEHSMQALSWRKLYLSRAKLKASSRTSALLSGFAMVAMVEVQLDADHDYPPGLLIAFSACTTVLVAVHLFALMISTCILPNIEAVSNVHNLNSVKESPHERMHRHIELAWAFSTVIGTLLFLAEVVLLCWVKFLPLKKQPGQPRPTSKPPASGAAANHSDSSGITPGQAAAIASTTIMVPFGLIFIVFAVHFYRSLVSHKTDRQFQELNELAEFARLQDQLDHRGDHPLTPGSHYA

[5] = target: T5, hOrai1-mOrai1 ECL2 (SKPPA) protein (human/mouse chimera, UniProt Q96D31 1-301); experiment: FACS, 293EBNA, RFI-POC grade; set-up: concentration or dose not given beside the values
T5 construct: also called Ch
T5 sequence (Q96D31 other isoform, or with tags, fused parts or gaps): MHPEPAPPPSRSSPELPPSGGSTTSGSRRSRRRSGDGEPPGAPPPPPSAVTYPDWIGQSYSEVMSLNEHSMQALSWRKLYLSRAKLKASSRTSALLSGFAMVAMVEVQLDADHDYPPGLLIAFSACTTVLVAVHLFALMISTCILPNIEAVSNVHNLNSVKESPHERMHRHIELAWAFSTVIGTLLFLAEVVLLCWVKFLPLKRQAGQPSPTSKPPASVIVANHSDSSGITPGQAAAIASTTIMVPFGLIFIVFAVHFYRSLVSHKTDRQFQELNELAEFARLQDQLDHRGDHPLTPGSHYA

[6] = target: T6, hOrai1-mOrai1 ECL2 (RPTSKPPA) protein (human/mouse chimera, UniProt Q96D31 1-301); experiment: FACS, 293EBNA, RFI-POC grade; set-up: concentration or dose not given beside the values
T6 construct: also called Ch
T6 sequence (Q96D31 other isoform, or with tags, fused parts or gaps): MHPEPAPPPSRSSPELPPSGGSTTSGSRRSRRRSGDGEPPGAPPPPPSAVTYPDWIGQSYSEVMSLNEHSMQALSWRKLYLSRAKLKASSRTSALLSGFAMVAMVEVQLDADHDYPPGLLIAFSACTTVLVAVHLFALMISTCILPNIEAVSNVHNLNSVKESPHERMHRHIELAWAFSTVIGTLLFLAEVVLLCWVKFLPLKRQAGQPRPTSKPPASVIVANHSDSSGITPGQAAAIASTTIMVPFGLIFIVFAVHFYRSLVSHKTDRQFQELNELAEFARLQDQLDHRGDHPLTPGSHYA

human Orai1 [7] = target: T7, human Orai1 (human, UniProt Q96D31 1-301); experiment: KinExA, AM1-CHO/hOrai1/hSTIM1-YFP cells
T7 construct: on AM1-CHO/hOrai1/hSTIM1-YFP, AM1/hOrai1, HEK-293 transfectants, endogenous on Jurkat and blood cells; in Westerns from cell lysates; also called hOrai1; CRACM1
T7 sequence (Q96D31 whole entry): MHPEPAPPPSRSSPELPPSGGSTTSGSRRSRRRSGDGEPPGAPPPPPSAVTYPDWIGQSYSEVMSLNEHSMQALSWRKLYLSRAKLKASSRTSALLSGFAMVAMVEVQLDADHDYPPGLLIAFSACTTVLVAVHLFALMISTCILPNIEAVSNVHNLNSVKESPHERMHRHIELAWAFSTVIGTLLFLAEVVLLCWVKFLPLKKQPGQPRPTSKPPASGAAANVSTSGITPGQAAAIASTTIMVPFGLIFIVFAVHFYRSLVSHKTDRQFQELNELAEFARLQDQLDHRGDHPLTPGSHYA
Description: Each equilibrium sample set was read in triplicate on the KinExA machine. For low [Ab] equilibrium samples 4 mL was run of each sample in triplicate. For high [Ab] equilibrium samples 300 μL was run of each sample in triplicate. […] For each equilibrium sample the free [Ab] would be detected by first running the coated beads through the flow cell, then after quick wash with the running buffer (1×PBS pH7.4+1% BSA+0.05% Sodium Azide) the equilibrium samples were passed through the beads followed by a quick wash with the running buffer. Then the secondary detection Ab, Gt anti Hu (H+ L) Cy5, was run through the flow cell at 1 μg/mL and 1000 μL per run. The KinExA voltage output signal was then used in KinExA software to calculate the Kd values for each antibody. From the plots at two different initial total [Ab] concentrations the Kd was obtained from curve fitting using n-curve analysis in KinExA Pro software (Sapidyne Instruments Inc., Boise Id.).

human Orai1 [8] = target: T7, human Orai1; experiment: cell-based or functional assay
human Orai1 [9] = target: T7, human Orai1; experiment: FACS Kd, AM1-CHO/hOrai1/hSTIM1-YFP cells
Description: The equilibrium plates were centrifuged at 500 g for 3 minutes and cell pellets were washed twice with 200 μL of ice cold FACS buffer (1×D-PBS+2% FBS). The cells were then incubated with a secondary antibody, goat anti-human Fc Cy5 at 5 μg/mL and 100 μL per well for 1 h on ice in the dark. Following the incubation, the cells were washed twice with 200 μL of ice-cold FACS buffer before flow cytometry analysis. The GeoMean values gated on live cell population measure the bound [Ab]. The inverse of the GeoMean values that reflects theoretical free [Ag] in the equilibrium solution was then calculated. The inverse values of the GeoMean read were used in KinExA® Pro software for analysis and Kd calculation for each antibody. The free [Ag] measure was plotted against the starting concentration of titrating component and from these plots at two different cell concentrations the Kd was obtained from curve fitting using n-curve analysis in KinExA Pro software. […] Shown in Table 14 (below) are the equilibrium dissociation constant (Kd) values of invented mAbs determined by FACS Kd measurement.

Row | Binder | percent of control (POC) of FACS Geo Mean [1] [%] | percent of control (POC) of FACS Geo Mean [2] [%] | percent of control (POC) of FACS Geo Mean [3] [%] | percent of control (POC) of FACS Geo Mean [4] [%] | percent of control (POC) of FACS Geo Mean [5] [%] | percent of control (POC) of FACS Geo Mean [6] [%] | Kd (human Orai1 [7]) [nM] | IC50 IFN-γ, whole blood Donor A, recombinant mAb (human Orai1 [8]) [nM] | IC50 IFN-γ, whole blood Donor B, recombinant mAb (human Orai1 [8]) [nM] | IC50 IL-2, whole blood Donor A, recombinant mAb (human Orai1 [8]) [nM] | IC50 IL-2, whole blood Donor B, recombinant mAb (human Orai1 [8]) [nM] | Kd (human Orai1 [9]) [nM]
1 | mAb 5F7.1 (antibody, human IgG2, lambda, fully human IgG2 lambda, Campaign 2) heavy: QVQLVQSGAEVKKPGASVKVPCKASGYTFTDYYINWVRQAPGQGLEWMGWINPNNGGTNYAQKFQGRVTMTRDTSISTAYMELRRLRSDDTAVYYCARERGGYEDWFDPWGQGTLVTVSSASTKGPSVFPLAPCSRSTSESTAALGCLVKDYFPEPVTVSWNSGALTSGVHTFPAVLQSSGLYSLSSVVTVPSSNFGTQTYTCNVDHKPSNTKVDKTVERKCCVECPPCPAPPVAGPSVFLFPPKPKDTLMISRTPEVTCVVVDVSHEDPEVQFNWYVDGVEVHNAKTKPREEQFNSTFRVVSVLTVVHQDWLNGKEYKCKVSNKGLPAPIEKTISKTKGQPREPQVYTLPPSREEMTKNQVSLTCLVKGFYPSDIAVEWESNGQPENNYKTTPPMLDSDGSFFLYSKLTVDKSRWQQGNVFSCSVMHEALHNHYTQKSLSLSPGK light: QSVLTQPPSVSGAPGQRVTISCTGSSSNIGAGFDVHWYQQLPVTAPKLLIYGNRNRPSGVPARFSGSKSGTSASLAITGLQAEDEAVYYCQSYDSSLTVFGGGTKLTVLGQPKANPTVTLFPPSSEELQANKATLVCLISDFYPGAVTVAWKADGSPVKAGVETTKPSKQSNNKYAASSYLSLTPEQWKSHRSYSCQVTHEGSTVEKTVAPTECS | 40 to 100 | 40 to 100 | 40 to 100 | 40 to 100 | 40 to 100 | 40 to 100 | 0.019 | 0.28 | 10.7 | 1.32 | 2.52 | 0.185
2 | mAb 2B4.1 (antibody, human IgG2, lambda, V domains shown) VH: QVQLVQSGAEVKKPGASVKVSCKASGYTFTDYYMHWVRQAPGQGLEWMGWINPNSGGTNYVQKFQDRVTMTRDTSITTAYMELTRLRSDDTAVYYCAREEGDYGMDVWGQGTTVTVSS VL: QSVLTQPPSVSGAPGQRVTISCTGSNSNIGTGYDVHWYQKLPGTAPRLLIYSHFNRPSGVPDRFSGSTSGTSASLAITGLQAEDEADYYCQSYDSSLSGSVFGGGTKLTVLG | – | – | – | – | – | – | – | – | – | – | – | 1.8
3 | mAb 5A4.2 (antibody, human IgG2, lambda, V domains shown, fully human IgG2 lambda, Campaign 2) VH: QVQLVQSGAEVKKPGASVKVSCKASGYTFTDYYMNWVRQAPGQGLEWMGWINPNSGGTKYAQKFQGRVTMTRDTSIRTAYMELSRLRSDDTAVYYCSREYGGNSDWFDPWGQGTLVTVSS VL: QSVLTQPPSVSGAPGQRVTISCTGSSSNIGAGYDVHWYQQLPGTAPKLLIYGNSNRPSGVPDRFSGSKSGTSASLAITGLQAEDEADYYCQSYDNRLSDSVVIGGGTKLTVQG | 40 to 100 | 40 to 100 | 40 to 100 | 40 to 100 | 40 to 100 | 40 to 100 | – | 0.59 | 3.59 | 1.42 | 0.87 | 1.2
4 | mAb 5C1.1 (antibody, human IgG2, lambda, V domains shown, fully human IgG2 lambda, Campaign 2) VH: QVQLVQSGAEVKKPGASVKVSCKASGYTFTDYYMNWVRQAPGQGLEWMGWINPNSGGTKYAQKFQGRVTMTRDTSIRTAYMELSRLRSDDTAVYYCAREYGGNSDWFDPWGQGTLVTVSS VL: QSVLTQPPSVSGAPGQRVTISCTGSSSNIGAGYDVHWYQQLPGTAPKLLIYGNSNRPSGVPDRFSGSKSGTSASLAITGLQAEDEADYYCQSYDNRLSDSVVIGGGTKLAVQG | 40 to 100 | 40 to 100 | 40 to 100 | 40 to 100 | 40 to 100 | 40 to 100 | – | – | – | – | – | –
5 | mAb 5F2.1 (antibody, human IgG2, lambda, V domains shown, fully human IgG2 lambda, Campaign 2) VH: QVQLVQSGAEVKKPGASVKVSCKASGYTFTDYYMNWVRQAPGQGLEWMGWINPNSGGTHYAQKFQGRVTMTRDTSISTAYMELSRLRSDDTAVYYCAREYGGYSDWFDPWGQGTLVTVSS VL: QSVLTQPPSVSGAPGQRVTISCTGSRSNIGAGYDVHWYQQLPRTAPKLLIYDNSNRPSGVPDRFSGSKSGSSASLAITGLQAEDEADYYCQSYDNSLSDSVLIGGGTKLTVLG | 40 to 100 | 40 to 100 | 40 to 100 | 40 to 100 | 40 to 100 | 40 to 100 | – | 11.1 | 9.84 | 2.42 | 2.43 | 0.767
6 | mAb 5B1.1 (antibody, human IgG2, lambda, V domains shown, fully human IgG2 lambda, Campaign 2; also called mAb 5Bl1.1) VH: QVQLVQSGAEVKKPGASVKVSCKASGYTFTDYYINWVRQAPGQGLEWMGWINPNSGGSSYAQKFQGRVTMTRDTSISTAHMELIRLRSDDTAVYYCARERGGIEDWFDPWGQGTLVTVSS VL: QSVLTQPPSVSGAPGQRVTISCTGSSSNIGAGYDVHWYQQLPGTAPKLLIYGNSNRPSGVPDRFSGSKSGTSASLAITKFQAEDEAVYYCQSYGSGLSGVVFGGGTKLTVLG | 40 to 100 | 40 to 100 | 40 to 100 | 40 to 100 | 5 to 40 | 40 to 100 | – | 0.52 | 34.8 | 2.08 | 9.52 | 0.443
7 | mAb 5A1.1 (antibody, human IgG2, fully human, Campaign 2; lambda CL-1) heavy: QVQLVQSGAEVKKPGASVKVPCKASGYTFTDYYINWVRQAPGQGLEWMGWINPNNGGTNYAQKFQGRVTMTRDTSISTAYMELRRLRSDDTAVYYCARERGGYEDWFDPWGQGTLVTVSSASTKGPSVFPLAPCSRSTSESTAALGCLVKDYFPEPVTVSWNSGALTSGVHTFPAVLQSSGLYSLSSVVTVPSSNFGTQTYTCNVDHKPSNTKVDKTVERKCCVECPPCPAPPVAGPSVFLFPPKPKDTLMISRTPEVTCVVVDVSHEDPEVQFNWYVDGVEVHNAKTKPREEQFNSTFRVVSVLTVVHQDWLNGKEYKCKVSNKGLPAPIEKTISKTKGQPREPQVYTLPPSREEMTKNQVSLTCLVKGFYPSDIAVEWESNGQPENNYKTTPPMLDSDGSFFLYSKLTVDKSRWQQGNVFSCSVMHEALHNHYTQKSLSLSPGK VL: QSVLTQPPSVSGAPGQRVTISCTGSSSNIGAGFDVHWYQQLPVTAPKLLIYGNRNRPSGVPARFSGSKSGTSASLAITGLQAEDEAVYYCQSYDSSLTVFGGGTKLTVL | 40 to 100 | 40 to 100 | 40 to 100 | 40 to 100 | 40 to 100 | 40 to 100 | – | – | – | – | – | –
8 | mAb 5B5.2 (antibody, human IgG2, lambda, V domains shown, fully human IgG2 lambda, Campaign 2; same chains as 5B5.1) VH: QVQLVQSGAEVKKPGASVKVSCKASGYTFTDYYINWVRQAPGQGLEWMGWINPNSGGTDYAQKFQGRVTMTRDTSIRTAYMELNRLTSDDTAVYYCAREYGGYEDWFDPWGQGTLVTVSS VL: QSVLTQPPSVSGAPGQRVTISCTGSNSNIGAGFDVHWYQQLPGTVPKLLIYGNNNRPSGVPDRFSGSKSGTSASLAITGLQAEDEADYYCQSYDSRLTVFGGGTKLTVLG | 40 to 100 | 40 to 100 | 40 to 100 | 40 to 100 | 5 to 40 | 40 to 100 | – | – | – | – | – | –
